“Also recorded” adds a separate entry of the source. Ends that are not written are not given here.
Key:
SF1 [1] = biological target: T1, SF1 (Bos taurus, UniProt Q04752); test: Yeast two-hybrid assay (HIS3 / β-galactosidase reporter); type: cell-based, bovine; design: The coding region for the wild type bovine SF1 was first subcloned into a yeast expression vector, pGBT9; expressed in transfected cells; host or cells: yeast (Y187, or Y187 x CG1945 diploids); settings: no ligand
Experimental: (§1) The protein-protein interactions between the full-length PNRC or PNRC fragments and SF1, ERRα1, and several other nuclear receptors were analyzed by yeast two-hybrid assays. The yeast two-hybrid assay was used to test if PNRC also interacts with other members of the nuclear receptor superfamily. pGBT9-ERRα-1 yeast expression plasmid was prepared by inserting the PCR-amplified ERRA-1 coding region into pGBT9 through an EcoRI site. To construct the plasmid pGBT9-ER274-595, the coding sequence from amino acids 274 to 595 (LBD) of ERα was amplified by PCR with the sense primer 5′-[…]-3′ (SEQ ID NO:1) and antisense primer 5′-[…]-3′ (SEQ ID NO:2) and cloned into the EcoRI/,SalI site of the pGBT9 yeast expression plasmid. pSG5-GRIP1 and several yeast expression plasmids coding for fusion proteins of Gal4-DBD and HBDs of AR, GR, PR, TR, RAR, and RXR in pGBT9 vector were kindly provided by Dr. Michael R. Stallcup (University of Southern California, Los Angeles, Calif.) (Voegel et al., 1996; Hong et al., 1996; Ding et al., 1998). The yeast mating approach was used in yeast two-hybrid assays to study protein-protein interactions as described in Clontech's protocol. Briefly, pGBT9 (DNA-BD vector only), pGBT9/target plasnmids for SF1, ERRα1, and other HBDs of nuclear receptors, and DNA-BD/control plasmids (as negative control) were introduced into the reporter strain Y187, and the AD vector alone or wild type PNRC and its deleted fragments-containing pACT2 derivatives were used to transform yeast strain CG1945. The yeast mating was performed by picking one colony from each type and growing both colonies in liquid YPD medium with or without a proper ligand at the following concentrations: 100 nM of estradiol for ER; 10 μM of deoxycorticosterone for GR; 100 nM of dihydrotestosterone for AR; 500 nM of progesterone for PR; 10 μM of T3 for TR; 10 μM of all-trans-retinoic acid for RAR; and 10 μM of 9-cis-retinoic acid for RXR. The same amount of an aliquot of the mating culture was spread on both SD/-Leu/-Trp plates to select diploid strains bearing both plasmids and SD/-Leu/-Trp/-His/+3-AT plates to score the growth of the diploid cells that express the two interacting target proteins. The His3 positive colonies were further analyzed for β-galactosidase activity by liquid β-galactosidase activity measurement as essentially described in the protocol.
(§2) Yeast strains Y187 expressing the Gal4DB fusion to the nuclear receptors and CG1945expressing Gal4AD alone or Gal4AD-PNRC fusion protein were mated by co-culturing, and selected for the presence of both two-hybrid plasmids. The expression of interacting hybrid proteins in yeast diploids was analyzed to determine if there was induction of HIS3 expression as shown in FIG. 1A and LacZ expression as shown in FIGS. 1B and 1C. […] As shown in FIGS. 1A-C, PNRC also interacted specifically with all seven nuclear receptor HBDs, including ER, AR, GR, TR, PR, RAR and RXR, and these interactions were completely ligand-dependent. […] However, no interactions occurred either between PNRC and an irrelevant protein such as human lamin C protein or between nuclear receptors and Gal4activation domain alone.

TR HBD = test: as above; type: cell-based; settings: 10 μM of T3
Experimental: as §1, §2

PR HBD = test: as above; type: cell-based; settings: 500 nM of progesterone
Experimental: as §1, §2

RAR HBD = test: as above; type: cell-based; settings: 10 μM of all-trans-retinoic acid
Experimental: as §1, §2

RXR HBD = test: as above; type: cell-based; settings: 10 μM of 9-cis-retinoic acid
Experimental: as §1, §2

SF1 [2] = biological target: T1, SF1; test: GST pull-down binding assay; design: The coding region for the wild type bovine SF1 was first subcloned into a yeast expression vector, pGBT9; expressed in transfected cells; host or cells: yeast (Y187, or Y187 x CG1945 diploids); species or system bovine; settings: GST fusion on glutathione Sepharose beads, 2 hour at 4° C.
Experimental: To further confirm the interaction between PNRC and SF1 which was detected in both the yeast and the mammalian two-hybrid assays, a GST pull-down binding assay was performed to study the direct binding between PNRC and SF1 in vitro. The PNRC cDNA fragments were generated by PCR and inserted into E. coli expression vector pGEX2TK (Pharnacia) through a BamHI site to express GST-PNRC wild type and deletion mutants fusion proteins. Wild type bovine SF1 cDNA in pSG5 vector was translated in vitro in the presence of [^35S]methionine using the TNT Coupled Reticulocyte Lysate System (Promega, Madison, Wis.). GST and deleted PNRC fusion proteins, GST-PNRC270-327 and GST-PNRC278-300, were prepared using the affinity matrix Glutathione Sepharose 4B (Pharmacia) according to the supplier's instructions. The washed beads containing about 10 μg GST fusion protein were incubated for 2 hour at 4° C. with 4 μl in vitro translated, [^35S]methionine-labeled SF1 in a total volume of 150 μl incubation buffer (50 mM Kpi, pH 7.4, 100 mM NaCl, 1 mM MgCl2, 10% glycerol, 0.1% Tween 20, 1.5% BSA) (Treuter et al., 1998). […]
PNRC fragments, including PNRC270-327 and PNRC278-300 were expressed as fusion proteins with glutathione S-transferase (GST) in E. coli BL21, purified with glutathione Sepharose 4B beads, and tested for their ability to bind in vitro translated [^35S]methionine-labeled SF1 in pull-down assays.

SF1 [3] = biological target: T1, SF1; test: Mammalian two-hybrid assay in SK-BR-3 cells (CAT reporter); type: cell-based, bovine; design: expressed in transfected cells; host or cells: SK-BR-3
Experimental: The Mammalian MatchMaker two-hybrid assay system (Clontech) was used to confirm the interaction between PNRC and SF1 that was identified in the yeast assays. Because the assays are performed in mammalian cells, proteins are more likely to be in their native conformations, and the results are therefore more likely to represent biologically significant interactions. SK-BR-3 breast cancer cells were cotransfected with three expression plasmids, including pM-SF1 for Gal4 DNA-DB/SF1 fusion protein, pVP16-PNRC for VP16AD-PNRC fusion protein, and a third vector, pG5CAT, to provide the Gal4 DNA-binding site, a promoter, and the CAT reporter gene.
A set of plasmids, named pM-SF1, pVP16-PNRC, pVP16-PNRC270-327, and pVP16-PNRC278-300, for mammalian two-hybrid assays were prepared as follows: SF1 cDNA fragment was excised from pGBT9-SF1 and inserted in frame into Gal4 DNA-binding domain vector pM (Clontech) through an EcoRI site. PCR was used to generate PNRC full length coding region as well as the above mentioned deleted fragments with BclI at both ends. The PCR products were digested with BclI and inserted in proper reading frame into a pVP16 activation domain vector (Clontech) at a BamHI site. Mammalian two-hybrid assays in SK-BR-3 cells were performed according to the procedures described in the Clontech protocol (PT3002-1).

[4] = biological target: T2, Gal4AD-PNRC fusion protein (full-length proline-rich nuclear receptor co-regulatory protein) (human, UniProt Q12796 1-327); test: yeast two-hybrid (HIS3 and LacZ reporters)
T2 construct: Yeast two-hybrid prey; also called wild type PNRC in pACT2; B4-2

[5] = biological target: T3, Gal4 DNA-DB/SF1 fusion protein (pM-SF1) (bovine, UniProt P04386 1-147; Q04752 1-461); test: mammalian two-hybrid, CAT reporter, SK-BR-3 cells
T3 construct: Mammalian two-hybrid construct, expressed in SK-BR-3 cells

[6] = biological target: T4, Gal4DBD-SF1 fusion protein (bovine steroidogenic factor 1, pGBT9-SF1) (bovine, UniProt P04386 1-147; Q04752 1-461); test: yeast two-hybrid (HIS3 and LacZ reporters)
T4 construct: Yeast two-hybrid bait; whole wild type coding region; also called DBDGal4-SF1

[7] = biological target: Gal4DBD-ERRα1 fusion protein (estrogen related receptor α-1, pGBT9-ERRα-1) (UniProt P04386 1-147; P11474 1-423); test: yeast two-hybrid (HIS3 and LacZ reporters)
[8] = biological target: T5, Gal4DBD fusion of ERα ligand-binding domain, amino acids 274 to 595 (pGBT9-ER274-595) (UniProt P04386 1-147; P03372 274-595); test: yeast two-hybrid (HIS3 and LacZ reporters)
T5 construct: Tested with 100 nM estradiol; also called ER HBD

T1 sequence (Q04752 whole entry, the tested form may be a part): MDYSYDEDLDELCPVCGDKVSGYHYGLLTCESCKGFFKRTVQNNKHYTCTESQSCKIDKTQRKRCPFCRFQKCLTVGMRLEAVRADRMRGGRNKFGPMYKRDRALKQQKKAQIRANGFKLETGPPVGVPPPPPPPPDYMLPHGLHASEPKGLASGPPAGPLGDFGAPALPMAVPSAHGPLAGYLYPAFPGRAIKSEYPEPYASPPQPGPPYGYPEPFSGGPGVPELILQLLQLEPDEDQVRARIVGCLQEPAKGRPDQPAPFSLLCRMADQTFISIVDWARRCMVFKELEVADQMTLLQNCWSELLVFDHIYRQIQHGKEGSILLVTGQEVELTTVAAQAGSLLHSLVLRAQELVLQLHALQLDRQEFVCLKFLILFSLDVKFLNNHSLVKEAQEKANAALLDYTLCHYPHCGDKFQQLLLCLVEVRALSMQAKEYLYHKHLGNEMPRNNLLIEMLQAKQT
T2 sequence (Q12796 whole entry, the tested form may be a part): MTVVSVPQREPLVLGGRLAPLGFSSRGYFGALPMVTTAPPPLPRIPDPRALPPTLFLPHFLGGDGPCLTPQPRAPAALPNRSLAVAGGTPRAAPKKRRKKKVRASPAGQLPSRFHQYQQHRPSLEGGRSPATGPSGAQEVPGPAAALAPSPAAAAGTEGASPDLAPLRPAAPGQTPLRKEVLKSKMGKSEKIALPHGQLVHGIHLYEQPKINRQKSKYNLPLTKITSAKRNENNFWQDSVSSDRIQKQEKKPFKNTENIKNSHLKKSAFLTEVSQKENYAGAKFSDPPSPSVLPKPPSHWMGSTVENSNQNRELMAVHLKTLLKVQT
PR HBD, sequence (P06401 679-933 limits assumed): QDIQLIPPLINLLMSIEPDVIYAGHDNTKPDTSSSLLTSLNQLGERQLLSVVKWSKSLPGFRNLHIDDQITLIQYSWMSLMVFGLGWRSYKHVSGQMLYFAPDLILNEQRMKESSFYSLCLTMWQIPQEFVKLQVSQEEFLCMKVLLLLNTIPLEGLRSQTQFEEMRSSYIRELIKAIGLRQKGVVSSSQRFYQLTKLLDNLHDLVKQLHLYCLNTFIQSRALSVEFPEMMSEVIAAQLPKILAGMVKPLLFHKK

NR box: NR box-like sequence LKTLL (aa 319-323; SEQ ID NO:4) of PNRC as fusion protein with Gal4 AD (not fully specified; UniProt Q12796 319-323, looked up, fragment)
interaction with SF1 (SF1 [1]): No interaction was observed

PNRC278-300 (mutant): PNRC278-300 carrying double mutations P287A and P290A (S-D-A-P-S-A-S, SEQ ID NO:6) (SDAPSAS; MUTAGEN (3) This residue has been changed from a proline.; listed as Homo sapiens)
interaction with SF1 (SF1 [1]): almost completely abolished the interactions | interaction with TR (TR HBD): almost completely abolished the interactions | interaction with PR (PR HBD): almost completely abolished the interactions | interaction with RAR (RAR HBD): almost completely abolished the interactions | interaction with RXR (RXR HBD): almost completely abolished the interactions

PNRC278-300: 23-amino acid PNRC region aa 278-300 (SEQ ID NO:9), expressed as Gal4AD, VP16 or GST fusion protein (NYAGAKFSDPPSPSVLPKPPSHW; listed as Homo sapiens)
interaction with SF1 (SF1 [1]): able to interact with SF1 | binding of in vitro translated 35S-labeled SF1 (SF1 [2]): found to bind SF1 | interaction with SF1 in mammalian two-hybrid assay (SF1 [3]): retain most of the interaction of full length PNRC to SF1

PNRC301-327: PNRC fragment aa 301-327 containing the NR box, Gal4AD fusion protein
interaction with SF1 (SF1 [1]): could not interact with SF1

PNRC/270-317: PNRC fragment aa 270-317 lacking the NR box, Gal4 AD fusion protein
interaction with SF1 (SF1 [1]): about the same

PNRC/270-327: C-terminal PNRC fragment aa 270-327, expressed as Gal4AD, VP16 or GST fusion protein
interaction with SF1 (SF1 [1]): about the same; also recorded: stronger than the interaction between PNRC/278-300 and SF1 | binding of in vitro translated 35S-labeled SF1 (SF1 [2]): found to bind SF1

B1: human lamin C protein (irrelevant protein, DNA-BD/control plasmid) (other, UniProt P04386 1-147, looked up)
chain: MKLLSSIEQACDICRLKKLKCSKEKPKCAKCLKNNWECRYSPKTKRSPLTRAHLTEVESRLERLEQLFLLIFPREDLDMILKMDSLQDIKALLTGLFVQDNVNKDAVTDRLASVETDMPLTLRQHRISATSSSEESSNKGQRQLTVSSEEVVSREVSGIKAAYEAELGDARKTLDSVAKERARLQLELSKVREEFKELKARNTKKEGDLIAAQARLKDLEALLNSKEAALSTALSEKRTLEGELHDLRGQVAKLEAALGEAKKQLQDEMLRRVDAENRLQTMKEELDFQKNIYSEELRETKRRHETRLVEID
notes: that lamin C is the DNA-BD control fusion is inferred from these two statements
binding result [4]: no binding

B2: VP16 activation domain alone (other)
chain: STAPPTDVSLGDELHLDGEDVAMAHADALDDFDLDMLGDGDSPGP
notes: Control of the mammalian two-hybrid assay; also called VP16 AD
binding result [5]: no binding

B3: Gal4 activation domain alone (other, UniProt P04386 768-881, looked up)
chain: ANFNQSGNIADSSLSFTFTNSSNGPNLITTQTNSQALSQPIASSNVHDNFMNNEITASKIDDGNNSKPLSPGWTDQTAYNAFGITTGMFNTTTMDDVYNYLFDDEDTPPNPKKE
notes: Control of the yeast two-hybrid assays; also called Gal4AD; AD vector alone
binding result [6]: no binding | binding result [7]: no binding | binding result [8]: no binding

— patent publication US6972178B1, “Drug screening using a proline-rich nuclear receptor co-regulatory protein/nuclear receptor co-expression system” (City of Hope, priority 1999, dated 2005)
